Here are results for three sequences from patent US20040091878.

Holding throughout (test): EMSA
The test system of data set [1] is Clone 6 ZFP (6-finger) (artificial). The conditions noted are these: probe flanks not given; 0.1 mM ZnCl2.
The test system of data set [2] is Clone 7 ZFP (6-finger) (artificial). The conditions noted are these: probe flanks not given; Table 5 prints TAGGTGGCATTGGGTGCTC, listing SEQ 67 tacgtggcattgggtgctc.
For data set [3], the system named is Clone 5 ZFP (BCTV whole L1, 6-finger) (artificial). Conditions: probe 0.03 fmol per 10 ul; vast majority bound at 3 pM; 0.1 mM ZnCl2.

Broadly, the Kd is the free concentration of one partner at which half of the binding sites on the other are occupied at equilibrium, for simple one-to-one binding. High values mean a looser complex, low ones a tighter complex. As for “AGTAAGGTAGGAGATGATA (double strand) [Clone 6 target]”, in data set [1], the Kd was < 3 pM.
As to “TACGTGGCATTGGGTGCTC (double strand) [Clone 7 target]”, the Kd in data set [2] is < 3 pM.
For “TATATATATTGGGTGCTTTGGGTGCTCTATATATA (double strand) [BCTV whole L1 probe]”, in data set [3], the dissociation constant (Kd) was < 3 pM.
